According to PMC10703783, “Programmed cell death 11 modulates but not entirely relies on p53-HDM2 loop to facilitate G2/M transition in colorectal cancer cells” (Oncogenesis, 2023):

B1: His-S-tagged PDCD11 (1033-1431) (domain or fragment, human, UniProt Q14690 1033-1431, looked up)
chain: LSIGDMVTGTVKSIKPTHVVVTLEDGIIGCIHASHILDDVPEGTSPTTKLKVGKTVTARVIGGRDMKTFKYLPISHPRFVRTIPELSVRPSELEDGHTALNTHSVSPMEKIKQYQAGQTVTCFLKKYNVVKKWLEVEIAPDIRGRIPLLLTSLSFKVLKHPDKKFRVGQALRATVVGPDSSKTLLCLSLTGPHKLEEGEVAMGRVVKVTPNEGLTVSFPFGKIGTVSIFHMSDSYSETPLEDFVPQKVVRCYILSTADNVLTLSLRSSRTNPETKSKVEDPEINSIQDIKEGQLLRGYVGSIQPHGVFFRLGPSVVGLARYSHVSQHSPSKKALYNKHLPEGKLLTARVLRLNHQKNLVELSFLPGDTGKPDVLSASLEGQLTKQEERKTEAEERDQKG
notes: source: expressed and purified
B2: GST-tagged HDM2 (349-497) (domain or fragment, UniProt Q00987-11 349-497, looked up)
chain: EKAKLENSTQAEEGFDVPDCKKTIVNDSRESCVEENDDKITQASQSQESEDYSQPSTSSSIIYSSQEDVKEFEREETQDKEESVESSLPLNAIEPCVICQGRPKNGCIVHGKTGHLMACFTCAKKLKKRNKPCPVCRQPIQMIVLTYFP
notes: as for B1

What was measured:
Assay in all cases: pull-down; GST pulldown in vitro; GST-tagged p53 or HDM2 (full length or truncations) as bait, His-S-tagged PDCD11 (full length or truncations) as prey
Details in all cases: both partners purified
[1] = biological target: T1, GST-tagged full-length HDM2 (UniProt Q00987-11 1-497)
T1 construct: HDM2, full length; also called HDM2-FL; GST-HDM2; source: expressed and purified

[2] = biological target: B1
[3] = biological target: T2, His-S-tagged full-length PDCD11 (programmed cell death 11) (human, UniProt Q14690 1-1871)
T2 construct: programmed cell death 11 (PDCD11), human, Gene ID 22984, 1871 amino acids, full length; also called PDCD11-FL; ALG-4; source: expressed and purified
T2 sequence (Q14690 whole entry): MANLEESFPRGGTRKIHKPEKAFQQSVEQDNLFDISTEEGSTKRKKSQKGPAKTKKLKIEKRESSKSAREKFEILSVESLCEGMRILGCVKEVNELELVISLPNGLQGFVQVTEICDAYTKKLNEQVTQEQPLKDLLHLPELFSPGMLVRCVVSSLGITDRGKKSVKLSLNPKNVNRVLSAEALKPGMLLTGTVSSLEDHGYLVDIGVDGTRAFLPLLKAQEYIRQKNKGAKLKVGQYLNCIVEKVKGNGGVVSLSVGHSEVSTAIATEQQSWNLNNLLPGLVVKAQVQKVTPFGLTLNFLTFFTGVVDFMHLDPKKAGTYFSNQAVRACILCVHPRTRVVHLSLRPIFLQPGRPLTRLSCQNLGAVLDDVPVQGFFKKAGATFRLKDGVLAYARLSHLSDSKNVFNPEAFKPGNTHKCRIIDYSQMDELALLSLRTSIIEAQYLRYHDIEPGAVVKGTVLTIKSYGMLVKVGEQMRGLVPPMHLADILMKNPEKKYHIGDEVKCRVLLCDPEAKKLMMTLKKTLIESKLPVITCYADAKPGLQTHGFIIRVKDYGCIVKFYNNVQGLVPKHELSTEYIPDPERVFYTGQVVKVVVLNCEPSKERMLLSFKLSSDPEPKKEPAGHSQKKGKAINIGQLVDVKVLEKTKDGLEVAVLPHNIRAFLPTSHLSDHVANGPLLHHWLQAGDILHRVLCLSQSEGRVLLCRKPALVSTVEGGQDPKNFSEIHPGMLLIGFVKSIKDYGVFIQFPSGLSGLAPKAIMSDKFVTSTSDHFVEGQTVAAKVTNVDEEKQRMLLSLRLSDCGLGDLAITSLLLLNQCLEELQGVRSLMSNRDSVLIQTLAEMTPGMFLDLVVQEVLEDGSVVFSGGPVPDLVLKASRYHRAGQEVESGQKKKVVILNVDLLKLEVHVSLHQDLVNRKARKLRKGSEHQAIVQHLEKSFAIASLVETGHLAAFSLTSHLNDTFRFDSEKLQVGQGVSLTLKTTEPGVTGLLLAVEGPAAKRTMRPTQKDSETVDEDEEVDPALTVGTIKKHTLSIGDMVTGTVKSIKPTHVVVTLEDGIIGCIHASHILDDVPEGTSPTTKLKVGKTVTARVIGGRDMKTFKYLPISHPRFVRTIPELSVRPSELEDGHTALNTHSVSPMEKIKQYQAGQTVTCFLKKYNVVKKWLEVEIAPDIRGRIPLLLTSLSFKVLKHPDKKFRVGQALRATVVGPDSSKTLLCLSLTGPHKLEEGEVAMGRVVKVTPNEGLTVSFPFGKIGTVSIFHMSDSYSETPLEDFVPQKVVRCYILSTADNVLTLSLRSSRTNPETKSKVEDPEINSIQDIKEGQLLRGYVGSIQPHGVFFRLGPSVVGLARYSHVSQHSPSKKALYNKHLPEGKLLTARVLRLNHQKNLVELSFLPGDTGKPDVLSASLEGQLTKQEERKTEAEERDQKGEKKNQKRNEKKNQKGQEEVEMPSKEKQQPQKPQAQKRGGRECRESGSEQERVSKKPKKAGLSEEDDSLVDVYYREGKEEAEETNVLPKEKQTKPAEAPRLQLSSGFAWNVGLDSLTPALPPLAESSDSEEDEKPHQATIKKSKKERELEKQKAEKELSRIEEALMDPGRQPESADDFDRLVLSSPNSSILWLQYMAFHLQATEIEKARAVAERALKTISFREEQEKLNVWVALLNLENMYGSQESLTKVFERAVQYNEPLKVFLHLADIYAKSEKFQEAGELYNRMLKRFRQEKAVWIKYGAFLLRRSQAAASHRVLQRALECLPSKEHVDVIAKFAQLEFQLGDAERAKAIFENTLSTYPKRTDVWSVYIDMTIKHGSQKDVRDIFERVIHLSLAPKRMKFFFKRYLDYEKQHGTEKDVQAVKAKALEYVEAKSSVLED

binding result [1] | binding result [2] | Binder | binding result [3]
binds |  | B1 | 
 | binds | B2 | binds
